The binders below were run against E. coli Hsp70 (DnaK) (E. coli, UniProt P0A6Y8 1-638) (assay: SPR).
Chain of E. coli Hsp70 (DnaK) (P0A6Y8 whole entry): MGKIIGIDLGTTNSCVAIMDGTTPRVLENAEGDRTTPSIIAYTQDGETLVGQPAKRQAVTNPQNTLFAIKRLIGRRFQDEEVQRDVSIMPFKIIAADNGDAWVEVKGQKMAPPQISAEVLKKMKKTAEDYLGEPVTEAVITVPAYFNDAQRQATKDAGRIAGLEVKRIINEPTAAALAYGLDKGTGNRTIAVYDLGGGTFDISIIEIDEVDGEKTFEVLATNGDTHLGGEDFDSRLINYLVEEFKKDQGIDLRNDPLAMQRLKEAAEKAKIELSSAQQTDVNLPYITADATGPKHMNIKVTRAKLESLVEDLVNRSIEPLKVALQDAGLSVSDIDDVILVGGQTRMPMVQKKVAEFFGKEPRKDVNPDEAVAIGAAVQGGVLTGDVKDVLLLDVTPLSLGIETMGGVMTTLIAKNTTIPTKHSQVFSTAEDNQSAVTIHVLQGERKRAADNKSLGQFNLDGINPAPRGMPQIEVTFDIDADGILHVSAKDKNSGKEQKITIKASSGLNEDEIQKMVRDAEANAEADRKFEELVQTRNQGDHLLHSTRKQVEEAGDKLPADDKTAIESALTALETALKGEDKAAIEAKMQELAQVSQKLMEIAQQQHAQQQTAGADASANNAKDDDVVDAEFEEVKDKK
ALLLMYRR: binds.
GFRNNNMYRF: binds.
NRNNTG: binds.
NRLLTG: binds.
ANNNMYRR: binds.
GFRVVLMYRF: binds.

From doi:10.1101/2020.03.09.984104 (bioRxiv, 2020)
